Article PMC3687086 (Nature, 2013)

T1: Rpt1 (subunit of the base) (yeast, UniProt P33299 1-467)
T1 sequence: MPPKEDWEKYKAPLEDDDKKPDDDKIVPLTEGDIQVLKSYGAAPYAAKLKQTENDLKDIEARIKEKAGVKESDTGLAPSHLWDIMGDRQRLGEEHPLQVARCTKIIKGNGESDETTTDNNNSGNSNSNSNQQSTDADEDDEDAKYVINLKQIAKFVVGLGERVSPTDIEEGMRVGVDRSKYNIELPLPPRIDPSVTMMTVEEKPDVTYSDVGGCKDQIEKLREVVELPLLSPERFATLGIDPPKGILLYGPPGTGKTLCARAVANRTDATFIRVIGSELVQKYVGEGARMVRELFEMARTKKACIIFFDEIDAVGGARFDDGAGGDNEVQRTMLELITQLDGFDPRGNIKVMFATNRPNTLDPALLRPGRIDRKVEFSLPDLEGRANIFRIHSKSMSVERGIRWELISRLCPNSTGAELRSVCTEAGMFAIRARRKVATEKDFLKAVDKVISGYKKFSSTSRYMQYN


Tests used:
[1] = target: Rpt2 (subunit of the base) (yeast, UniProt P40327 1-437); test: cryo-EM structure
Chain of Rpt2 (subunit of the base) (P40327 whole entry): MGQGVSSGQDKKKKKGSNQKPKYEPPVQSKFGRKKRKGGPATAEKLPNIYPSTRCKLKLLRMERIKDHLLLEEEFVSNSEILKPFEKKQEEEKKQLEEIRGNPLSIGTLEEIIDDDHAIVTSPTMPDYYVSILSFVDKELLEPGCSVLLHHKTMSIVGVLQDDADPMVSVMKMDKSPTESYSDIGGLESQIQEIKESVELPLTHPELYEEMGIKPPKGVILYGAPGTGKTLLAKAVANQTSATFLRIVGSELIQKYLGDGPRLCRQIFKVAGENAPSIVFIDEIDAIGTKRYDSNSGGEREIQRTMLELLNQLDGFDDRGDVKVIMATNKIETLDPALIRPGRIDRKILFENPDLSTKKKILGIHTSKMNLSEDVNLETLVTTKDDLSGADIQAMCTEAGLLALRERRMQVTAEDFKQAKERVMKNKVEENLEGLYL

[2] = target: T1, Rpt1 (subunit of the base); test: cryo-EM structure

Binder | binding result [1] | binding result [2]
CP subunit α3 (natural protein) MGSRRYDSRTTIFSPEGRLYQVEYALESISHAGTAIGIMASDGIVLAAERKVTSTLLEQDTSTEKLYKLNDKIAVAVAGLTADAEILINTARIHAQNYLKTYNEDIPVEILVRRLSDIKQGYTQHGGLRPFGVSFIYAGYDDRYGYQLYTSNPSGNYTGWKAISVGANTSAAQTLLQMDYKDDMKVDDAIELALKTLSKTTDSSALTYDRLEFATIRKGANDGEVYQKIFKPQEIKDILVKTGITKKDEDEEADEDMK | binds | 
CP subunit α4 (natural protein) MSGYDRALSIFSPDGHIFQVEYALEAVKRGTCAVGVKGKNCVVLGCERRSTLKLQDTRITPSKVSKIDSHVVLSFSGLNADSRILIEKARVEAQSHRLTLEDPVTVEYLTRYVAGVQQRYTQSGGVRPFGVSTLIAGFDPRDDEPKLYQTEPSGIYSSWSAQTIGRNSKTVREFLEKNYDRKEPPATVEECVKLTVRSLLEVVQTGAKNIEITVVKPDSDIVALSSEEINQYVTQIEQEKQEQQEQDKKKKSNH | binds | binds
